From the DeepSol protein solubility set

assay: soluble on expression in E. coli; label from the status in PepcDB or PDB records

Sequence | soluble on expression in E. coli
ASEEDLAAATEKMQSMKGKKSQAAAALEAEQAKAEKRLSCLLKARTKLSFRVIRDGIKCHGGIHLKKQSEKAELDISVTNTAINNLPSDADIVITHKDLTDRAKAKLPNATHISVDNFLNSPKYDELIEKLKSNLIEREYCHASTRKGNIKLNQTVSSKEEAIKLAGQTLIDNGYVTEDYISKMFDREETSSTFMGNFIAIPHGTEEAKSEVLHSGISIIQIPEGVEYGEGNTAKVVFGIAGKNNEHLDILSNIAIICSEEETLNA | not soluble
MASEALHQVGDGEEAVLKKENFNMMNALDQLPKPFPNPKSMNRTVTTKGLPLASKGNLVNFLEDDTINLLKPLPVEDSDCSSDETSISAFSSTLLNPIKLAVTQPNSSFFAGMLEGELNKLSFSPMAKNAENEDLALGPCPCPSKSQMATRGLLDLDNPELETETSSTHSESSVVVDLPDTPFIFEHTVNNSTAVISWTYALGKQPVSFYQLLLQEVAKTQENELPEAKNRPWIFNKILGTTVKLMELKPNTCYCLSVRAANTAGVGKWCKPYKFATLATDFSSFPENYPIQITVRRKEPRQKIVSIGPEEMRRLEDLEYLFPC | soluble
MDVQKKAQMVIEEVKKAIVGKDNVLKLVLATILADGHILIEDLPGLAKTLMAKSFAKALGLEFKRVQFTPDLLPSDILGVNVFNQKTLEFEFKKGPVFTNILLADEINRAPPKTQSALLEAMQERQVTIEGVTYKLPKPFIVIATQNPIEQEGTYPLPEAQLDRFLVRLRMGYPSKDEEKEILRRRIERKQDEVEIETVLSPKDVLKMQREVEDVYVSDAIIEYITSLVWATREDKRDIEIGVSPRGSLALLKLSRAYAAIEGRDYVIPDDVKAVAIPALSHRIILKRELWYTRVSQESVIEKILERVPVPKFE | soluble
MVQTVLNSVWLWRSVLLRLTFSDSGSFLGQSFLLFSSGFWSVLVEQLEGFSSGVSVQSVLELSNGWRNLQSDGQDLLLSLQSDIFWPFDVSGQVSLWLDSLANTEVLWSRVSQWVLSLVRLSGLSTEWSWSNFLTWSHLFFQLSCSLY | soluble
SAAPVDLELKKAFTELQAKVIDTQQKVKLADIQIEQLNRTKKHAHLTDTEIMTLVDETNMYEGVGRMFILQSKEAIHSQLLEKQKIAEEKIKELEQKKSYLERSVKEAEDNIREMLMARRAQ | soluble
MGSDKIHHHHHHMKKAVLIVNPSSGGEKAKEFETLAEEKLKQLFDEVVVKQTEKGGDAEQFAREAAESHFDSVFVMGGDGTVNEGISGLAEQAYRPKFGFFPLGTVNDLARALNLPMDPEEAIQQLDLEKTSALDVGKINDDYFMNVVAIGTIPESINDVDVEQKTKLGKLAYFISGAKHLANAQTYPFHLSLDQKEQTIESSTVLVGLTNSIGGFETLLPEAQVDDGKLHLVYLKDQSLWDAVKAVPDLLKGVDQSTDNLVYLTFKEGTISLENQEELTTNVDGDEGAALPITLKILPKHLTVYCGEEQTK | not soluble
SLLPFKENRGLIFLDPPFEVKNEFQKLLEALKKIKLRVLNNTVLIWYPIKDLSLVCDVYHNYKNIGFKETMIIEYELLNSDKNMVKCGLMLINPPNIRGELEKLTEYLSGTLNLKFTYIYL | not soluble
MSLSFTGLEGTRVLVADDNFTSRAILKEVLESLRFDVTLAESGEEAVDLVQKTAEPFKVVLLDWRMPGLDGLACARHIRQLDLPVRPTILIITAYGREEVLGEIPSEIIDGVLLKPVARSLLLNTILDALPEYSSRPEQESRIIQIDTAQLRQELADTSVLVVEDNKINRQIAKELLEGVGVRVTLAGDGLEALALVENYDFDLIFMDIQMPRMDGLEACRRIRQLQHKKQPPVVAMTAHALAGDRETSLRAGMNDHITKPIDPDELYAALANWIKRNHAEGHHHHHH | soluble
MGSDKIHHHHHHMIEPVSEDTILITLAPAIDDTLPARIASLVDSIRRAGFHWLVDMVPSYTTLMVVYDPVLVDFRQVTDKLRPIVHRLSTQGHTAELKSRLVELPVYYSAETGPDLQWLATESGLDCEEVIRRHSSVEYRVHALGFAPGFAFMGQVDPSIAAPRKTTPRKQVPAGSVGIANRQTAVYPQVSPGGWQLIGRCPTRLFDSTNLSLLKVGDRVRFTPISREAFLAAGGELIS | not soluble
MAGDPMTPTQNVPEDRIQIGQLRSAYGLNGWLWVYSNTEPMSNMFDYLPWFIETKAGWQTVDVKRWKPHGKGLVVSLKNVSDRNAAESLIGSTIWVAKSQLPKTDVDEYYWSDLKGLTVLGLDEEEQEVNLGQIHELFETGANDVMVVRATADSVDAEERMIPWHKDVVQRVDLEAGRIYVNWGVDYLEHHHHHH | soluble
MEEIWLSCHALVFHTTPTQRLCVGWGELAVGRFVKMAAAPAPEMTPRLDVSKNATDPDSLTDHGFQYSRHRPVITDHKRFDRLVGFSIKQSNVELAAEAIKQAATVWCLTEKKSDKRDEDSVKFLATYLYKESLYWGKIDPRRALQRATAESWLGSQSFAPTSARTYKAVLHTAGRVLYPAEFPPANRYSNPRAKPVDPASVELIDELYGVAATLPAVHRLRLQLILDLTTQSGLRSAEVLDLRGSDVTARILDTGERIALVRVHR | not soluble
MSLEHAAEILANRYVRGDALTNPDATKEYVRCKLGSYEREVFALLLLDNQNRLIEFKELFQGTVDAASVYPREVVKAVLEVNAAAVIFAHNHPSGDSTPSQADRRITERLKDTLALVDVRVLDHIVTGDTCTSFAERGWLEGHHHHHH | not soluble
EIAVIGAAGKTGAAVVAALEGLDDVRRVVHTARRAGDFAVDLETGAGLDKALSGCRGVYFIAPNVHPDEPALLRNTMRAAASVGVDHFVYHSVAWPYTPLMPHHVDKARCEDELRTFGGLRWTVLQPCAYAENFGAVLAGTATTVELPYSPDAAFSFVALADVAEVGARVLVEGPDIHHGATYELGGPEALSVRDLCDRAGGPVSVKQVSVDEWMSRHGRDLTDDGRARLSAMFEFYDRYGFL | not soluble
GPGSMERLLPSMQQRFAELAHTGVGESSLTVEALFQRYQRVLKVGEGTFGEVFVLYDTVAHTYITMKRMHTLLSLRRRSLGIHRCTFREVELLAALQHPNIVQVLDYHILSDGSLVMLMPVIAHDLTSLLRRWPSTPQSSDHGTASTAASTRPRMPLHVVKCIFRQIIAGVAYLHKHKVVHRDLKPSNVMVDHTGVVKLIDFGWSRFCAAAGAMTGPPCVTAFRPPEVLMGAHNHYTFSLDIWCCGCILFEMLTGGTPFAKSRNEAECLANIVDWLGSPPSSSEVYYRRAARCPFPLAPGRPDTFAQRCSNYGIKSAEAMFLRRMLCLEPGERATAEALLRDPWFTTAPTMCVPRAVPLPAHNMFRLVEVKRKELEH | not soluble
AETSSATTAQQMPSLAPMLEKVMPSVVSINVEGSTTVNTPRMPRNFQQFFGDDSPFCQEGSPFQSSPFCQGGQGGNGGGQQQKFMALGSGVIIDADKGYVVTNNHVVDNATVIKVQLSDGRKFDAKMVGKDPRSDIALIQIQNPKNLTAIKMADSDALRVGDYTVAIGNPFGLGETVTSGIVSALGRSGLNAENYENFIQTDAAINRGNSGGALVNLNGELIGINTAILAPDGGNIGIGFAIPSNMVKNLTSQMVEYGQVKRGELGIMGTELNSELAKAMKVDAQRGAFVSQVLPNSSAAKAGIKAGDVITSLNGKPISSFAALRAQVGTMPVGSKLTLGLLRDGKQVNVNLELQQSSQNQVDSSSIFNGIEGAEMSNKGKDQGVVVNNVKTGTPAAQIGLKKGDVIIGANQQAVKNIAELRKVLDSKPSVLALNIQRGDSTIYLLMQ | soluble
MGSDKIHHHHHHMAIQQLEKPEHAGRRTAPEITVSGIGKRYGATPVLMDVTLSVTPGEIHGIMGENGAGKSTLLKILGGAIMADSGTMELDGNPVRITTPRDAISQGISLISQELALIPNLSVLENVFLGRWSNRGSLLRPTKDGDHFARLLEETGFDLDPRATVGNLPIGQQQQVEILKALARGAKVLCMDEPTAVLNEAEKEKLLQVIKRLAQTGTTILIVSHYLEEVLELVDRVTILRDGQHIVTEDAAGHTPESLVRLMVGRDVDFLLPEIRQVQSQADTVLRVVGLTSAKVKEISFQVRRGEILGIAGLVGSGRSETLLAVFGADRTTGGHVEVNGRRIRASSIRDAIKAGIALIPESRKEQGLVMSRPASENIALSTLSGRSWAGFVSARREKAAVKDVSRSVDLRGARPGQPIANLSGGNQQKALFAKWLLDPPAVLLVDEPTRGVDIAAKARIHSIIAELAAKGTAVIVVSSELEEVLGLSHRIHVMRHGRIVAEFDRNASRDEVMTSAFLK | not soluble
ASLSPQPDVSGELNTEALTCIVERLESEIIDGSWIHISYEETDLEMMPFLVAQANKKYPELNLKFVMSVHELVSSIKETRMEGVESARFLVNMGSSGIHISVVDFRVMDGKTSVILFEPAACSAFGPALLALRTKAALEREQLPDCYFAMVELDIQRSSSECGIFSLALAKKLQLEFMNLVKIHEDNICERLCGEEPFLPSDKADRYLPVSFYKHTQGAQRLNEYVE | not soluble
MGELNKSARQIVEAVGGAENIAAATHCVTRLRFALIDESKVDQEMLDQIDVVKGSFSTNGQFQVVIGQGTVNKVYAELVKETGIGESTKDEVKKASEKNMNPLQRAVKTLADI | soluble
TPQQRRLSMARRTAASLGYNECVSYTFIDQASAALFGGGTDATMLENPISSEMSHMRPDLLPGLLAAAARNQARGFADLALFEAGPVFHGGEPGEQRAQIAGLLVGRTGPKDVHGAARAVDLYDAKADAEAVLAAMGAPAKVQILRDGDGWWHPGRHGRICLGPKKVLGVFGELHPRVLQAMDVKGPAVAFVLWPEEVPLPRKSGTTRAALAL | not soluble
MKADIARCAYMHAHGGFYFDTDYKLLRPLDAQVLSQHCVLPVEEGAPGQEDFKIGNAVFGSEPGHPFWRAFIEHIFTAHAPETLQDHREIPMISGPRGLTRFYNAHGGQFADILFPPRDAFHPDRTWFGLGHRGGKSAVGSHLCWASWRGKSPRRALTNYLRRKLNAVPILEHHHHHH | not soluble
MGSDKIHHHHHHMFSEGENVAKATIPLALESAEKNLETSNENEKARRSSSDTAISVRGISKCYQIYDAPRDRLKQFIIPRLRLARQQSRQYFREFWALKGISFEVRKGETVGIIGRNGSGKSTLLQIICGTLTPTAGSVETRGRIAALLELGSGFNPEFTGRENIYMNGAVLGLTREEIDDRFDSIVSFADIGQFIDQPVKTYSSGMSVRLAFAVQAQVDPDILIVDEALSVGDVRFQAKCFARLQQLKDNGTSVLLVTHSSEQIVTHCSSALLLNDGMQFEIGEPRHVVNRYLDLLFGKERRNPDSPQAQPGDIFQEDKGYAESAYQLSTDSDVFQTRNGYNTHEYRWGDGTASILDFYLAANGEPYPSAITVGQTVTLAVSIKFHSDMWRPILGITIKTKDGVTISGTNSEMADLLDLQALVKKGAILVGKCSFQCRLGPGDYFVSLGLATRENDEIIPHDRRYDSIHFIVEPHNKFHGLADLALDLSISHIVESNQI | not soluble
MGSDKIHHHHHHMTDPRILSLQQAVPALRLKTEPADLEHYGRDWTRRWTPNPLAIALPGSVEEVQAVVRWANTHAVAVVPSGGRTGLSGGAVAANGELVLSLERLNKPLAFDAVDRTLTVQAGMPLEAVHNAAREHGLVYPVDFAARGSCSIGGNIATNAGGIRVIRYGNTREWVAGLSVVTGTGELLHLNNALVKNSSGYDFRHLMIGSEGTLGIVVEATLRLTDPPPPSNVMLLALPSFDVLMQVFAAFRAQLRLEAFEFFTDRALEHVLAHGAQAPFAEVHPYYVVTEFAAGDEAQEAAAMAAFEACMEQGWVSDGVISQSDAQAAQLWRLREGITEALARYTPYKNDVSVRISAMPAFLAETQALLHDAYPHFDVVWFGHIGDGNLHINVLKPDATSQADFITACEQVTKLLAQSLQRFDGSISAEHGIGLVKKPYLWSTRSAAEIALMRGIKHVLDPHLLLNPGKLFDMDEVPGATPAG | not soluble
